Data reported in paper PMC4743672.

Molecular target: HLCS-NLuc (Myc-HLCS fused to the N-terminal fragment of firefly luciferase) (human) (UniProt P50747)
Assay: split reporter

Sequence of UniProt P50747 (P50747 whole entry, the tested form may be a part): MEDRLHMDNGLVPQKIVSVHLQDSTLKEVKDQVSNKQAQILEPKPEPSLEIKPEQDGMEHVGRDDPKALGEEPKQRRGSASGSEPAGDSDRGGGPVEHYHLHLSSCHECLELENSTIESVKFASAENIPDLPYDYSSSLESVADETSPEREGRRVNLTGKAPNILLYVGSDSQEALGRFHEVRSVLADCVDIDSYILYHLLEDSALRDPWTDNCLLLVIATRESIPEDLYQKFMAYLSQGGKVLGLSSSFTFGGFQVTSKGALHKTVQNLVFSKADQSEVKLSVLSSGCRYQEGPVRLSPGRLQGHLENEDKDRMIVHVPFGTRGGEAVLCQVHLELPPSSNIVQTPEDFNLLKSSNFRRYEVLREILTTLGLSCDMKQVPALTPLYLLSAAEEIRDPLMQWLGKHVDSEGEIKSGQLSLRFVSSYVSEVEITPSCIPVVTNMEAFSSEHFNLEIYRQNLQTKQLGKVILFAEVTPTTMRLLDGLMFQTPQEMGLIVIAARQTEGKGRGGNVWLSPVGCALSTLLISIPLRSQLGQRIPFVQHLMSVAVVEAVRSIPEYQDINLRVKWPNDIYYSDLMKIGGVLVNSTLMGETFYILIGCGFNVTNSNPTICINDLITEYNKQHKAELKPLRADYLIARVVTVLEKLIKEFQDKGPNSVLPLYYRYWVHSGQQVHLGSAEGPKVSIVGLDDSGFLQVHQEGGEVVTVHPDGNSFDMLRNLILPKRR

Row | Substance | luminescence signal, fold of TP53-NLuc plus CDK3-CLuc (negative control) [fold] | luminescence signal, fold of unfused NLuc plus CLuc (background control) [fold]
1 | N-CoR-CT-CLuc (Myc-N-CoR C-terminal domain fused to the C-terminal fragment of firefly luciferase) (domain or fragment) | 3.1 | 3.7
2 | HDAC1Δ31-CLuc (Myc-HDAC1Δ31 fused to the C-terminal fragment of firefly luciferase) (enzyme) | 2.4 | 2.9
